{"source": "patent US20160264649A1", "experiment_in_all_cases": "cell-based or functional assay", "key": {"[1]": {"target": "HIV-1 REJ04541 Env (HIV-1)"}, "HIV-1 ZM214 Env (HIV-1)": {"target": "HIV-1 ZM214 Env (HIV-1)"}, "HIV-1 CAP45 Env (HIV-1)": {"target": "HIV-1 CAP45 Env (HIV-1)"}, "HIV-1 TR0.11 Env (HIV-1)": {"target": "HIV-1 TR0.11 Env (HIV-1)"}, "HIV-1 DU156 Env (HIV-1)": {"target": "HIV-1 DU156 Env (HIV-1)"}, "HIV-1 Du172 Env (HIV-1)": {"target": "HIV-1 Du172 Env (HIV-1)"}, "HIV-1 CAAN Env (HIV-1)": {"target": "HIV-1 CAAN Env (HIV-1)"}, "HIV-1 DU422 Env (HIV-1)": {"target": "HIV-1 DU422 Env (HIV-1)"}, "HIV-1 PVO.4 Env (HIV-1)": {"target": "HIV-1 PVO.4 Env (HIV-1)"}, "[2]": {"target": "HIV-1 JR-FL Env E168K (HIV-1)"}, "[3]": {"target": "HIV-1 THRO.18 Env (HIV-1)"}, "HIV-1 ZM233 Env (HIV-1)": {"target": "HIV-1 ZM233 Env (HIV-1)"}, "[4]": {"target": "MuLV envelope (control pseudovirus)"}, "HIV-1 AC10 Env (HIV-1)": {"target": "HIV-1 AC10 Env (HIV-1)"}, "HIV-1 ZM249 Env (HIV-1)": {"target": "HIV-1 ZM249 Env (HIV-1)"}, "[5]": {"target": "HIV-1 Env of isolate MGRM-F1-021 (subtype F) (HIV-1)"}, "[6]": {"target": "HIV-1 Env of pseudovirus isolate MGRM-G-025 (subtype G) (HIV-1)"}, "[7]": {"target": "HIV-1 Env of isolate MGRM-F1-014 (subtype F) (HIV-1)"}, "[8]": {"target": "HIV-1 Env of isolate MGRM-F1-022 (subtype F) (HIV-1)"}, "[9]": {"target": "HIV-1 Env of isolate MGRM-D-018 (subtype D) (HIV-1)"}, "[10]": {"target": "HIV-1 Env of isolate JRFL (subtype B) (HIV-1)"}, "[11]": {"target": "HIV-1 Env of isolate MGRM-F1-008 (subtype F) (HIV-1)"}}, "data": [{"substance": "1443_C16 (PG16) (TCN-116) (antibody)", "values": [{"measurement": "IC50, TZM-bl pseudovirus neutralization", "setting": "[1]", "value": "< 0.01", "unit": "µg/mL"}, {"measurement": "IC50, TZM-bl pseudovirus neutralization", "setting": "HIV-1 ZM214 Env (HIV-1)", "value": "> 25", "unit": "µg/mL"}, {"measurement": "IC50, TZM-bl pseudovirus neutralization", "setting": "HIV-1 CAP45 Env (HIV-1)", "value": "< 0.01", "unit": "µg/mL"}, {"measurement": "IC50, TZM-bl pseudovirus neutralization", "setting": "HIV-1 TR0.11 Env (HIV-1)", "value": 3.61, "unit": "µg/mL"}, {"measurement": "IC50, TZM-bl pseudovirus neutralization", "setting": "HIV-1 DU156 Env (HIV-1)", "value": "< 0.01", "unit": "µg/mL"}, {"measurement": "IC50, TZM-bl pseudovirus neutralization", "setting": "HIV-1 Du172 Env (HIV-1)", "value": "< 0.01", "unit": "µg/mL"}, {"measurement": "IC50, TZM-bl pseudovirus neutralization", "setting": "HIV-1 CAAN Env (HIV-1)", "value": 6.37, "unit": "µg/mL"}, {"measurement": "IC50, TZM-bl pseudovirus neutralization", "setting": "HIV-1 DU422 Env (HIV-1)", "value": 0.59, "unit": "µg/mL"}, {"measurement": "IC50, TZM-bl pseudovirus neutralization", "setting": "HIV-1 PVO.4 Env (HIV-1)", "value": 12.3, "unit": "µg/mL"}, {"measurement": "IC50, TZM-bl pseudovirus neutralization", "setting": "[2]", "value": 6, "unit": "ng/mL"}, {"measurement": "IC50, TZM-bl pseudovirus neutralization", "setting": "[3]", "value": 2.19, "unit": "µg/mL"}, {"measurement": "IC50, TZM-bl pseudovirus neutralization", "setting": "HIV-1 ZM233 Env (HIV-1)", "value": "< 0.01", "unit": "µg/mL"}, {"measurement": "IC50, TZM-bl pseudovirus neutralization", "setting": "[4]", "value": "> 25", "unit": "µg/mL"}, {"measurement": "IC50, TZM-bl pseudovirus neutralization", "setting": "HIV-1 AC10 Env (HIV-1)", "value": "< 0.01", "unit": "µg/mL"}, {"measurement": "IC50, TZM-bl pseudovirus neutralization", "setting": "HIV-1 ZM249 Env (HIV-1)", "value": "< 0.01", "unit": "µg/mL"}]}, {"substance": "PGV04 (antibody)", "values": [{"measurement": "IC50 (pseudovirus neutralization)", "setting": "[5]", "value": 0.031, "unit": "µg/mL"}, {"measurement": "IC50", "setting": "[6]", "value": 1.61, "unit": "µg/mL"}, {"measurement": "IC50 (pseudovirus neutralization)", "setting": "[7]", "value": 0.02, "unit": "µg/mL"}, {"measurement": "IC50 (pseudovirus neutralization)", "setting": "[8]", "value": 0.072, "unit": "µg/mL"}, {"measurement": "IC50 (pseudovirus neutralization)", "setting": "[9]", "value": 17.5, "unit": "µg/mL"}, {"measurement": "IC50", "setting": "[10]", "value": 0.032, "unit": "µg/mL"}, {"measurement": "IC50 (pseudovirus neutralization)", "setting": "[11]", "value": 1.03, "unit": "µg/mL"}]}, {"substance": "VRC01 (antibody)", "values": [{"measurement": "IC50 (pseudovirus neutralization)", "setting": "[5]", "value": 0.039, "unit": "µg/mL"}, {"measurement": "IC50", "setting": "[6]", "value": 0.292, "unit": "µg/mL"}, {"measurement": "IC50 (pseudovirus neutralization)", "setting": "[7]", "value": 0.056, "unit": "µg/mL"}, {"measurement": "IC50 (pseudovirus neutralization)", "setting": "[8]", "value": 0.055, "unit": "µg/mL"}, {"measurement": "IC50 (pseudovirus neutralization)", "setting": "[9]", "value": "> 50", "unit": "µg/mL"}, {"measurement": "IC50", "setting": "[10]", "value": 0.034, "unit": "µg/mL"}, {"measurement": "IC50 (pseudovirus neutralization)", "setting": "[11]", "value": 1.11, "unit": "µg/mL"}]}]}
